Columns and labels:
[1] = Standard mogroside biocatalytic assay, mogroside V substrate; format: biochemical; settings: 37 C., pH 5.6; for Initial Rate / Reaction Progress / Sia 1: Mogroside hydrolysis; for Reaction Progress / Sia 1 / Sia:MogIII / Sia:MogIV: 72 h; for Sia:MogIII / Sia:MogIV: product ratio
Procedure: Standard mogroside biocatalytic assays were performed at 37° C. in 500 μL, volume 50 mM sodium citrate buffer pH 5.6, 10 mM magnesium chloride, 10 mM substrate (typically mogroside V) and 50 μg mL−1 enzyme, and incubated for 24-96 hours. Mogroside glucosidation activity was detected by direct HPLC detection and quantification of mogroside V substrate and mogroside products from filtered reaction supernatant, and quantified by comparison with standard curves based on peak.
Mogroside compounds HPLC separation and quantification was conducted using a Synergi Hydro-RP column (250 mm×4.6 mm or 150 mm×4.6 mm) with an initial flow rate of 1 mL min−1 and a water: acetonitrile gradient as per below, similar to that described by Zhou et al. (WO 2014/150127). Compounds were detected at 210 nm using diode array detector (Agilent Technologies, USA), and calibration curves established using standard curves from 0.1 to 10 mM.
(§1) Cells expressing enzyme variants grown in buffered minimal medium were induced for 72 hr with 1% methanol (refreshed every 24 hr), the culture supernatant harvested and assayed for standard ONPG activity over 30 minutes and mogroside V activity at pH 5.6, 37° C. for 72 hrs. The resultant activity data (Table 2) identified E200 and D258 as the likely catalytic pair for acid/base and nucleophilic attack of mogroside V by the A. oryzae β-glucosidase enzyme.

[2] = β-galactosidase ONPG activity assay; format: biochemical; settings: oNPG substrate, over 30 minutes
Procedure: Standard β-galactosidase assays were performed at room temperature using o-nitrophenyl-β-D-galactopyranoside (ONPG, Sigma) as a substrate in […] with detection of o-nitrophenol release at 420 nm (UV-Spectra Max Spectrophotometer, Molecular Devices, USA). A typical reaction contained 50 mM sodium citrate buffer pH 5.6, 10 mM magnesium chloride and 100 mM potassium chloride with 2 mM ONPG and the desired amount of enzyme (usually […]). Partially purified AoBG (Sigma G5160, USA) was used as a positive control at a final concentration of 1 U mL−1. Vmax was calculated using the SpectraMax Plus software (Molecular Devices, USA) and when required kinetics were determined by varying the concentration of substrate and kinetic determinants calculated using Hyper™ (J. S. Easterby, Liverpool University).
as §1

Molecule	Initial Rate [1] [µmol/min/mg]	Reaction Progress [1] [%]	Sia 1 [1] [%]	Sia:MogIII [1]	Sia:MogIV [1]	oNPG [2]
E142Q: A. oryzae β-galactosidase variant, E142Q (protein, UniProt Q2UCU3 19-1005, looked up, variant E142Q) Beta-galactosidase A: ASIKHRLNGFTILEHPDPAKRDLLQDIVTWDDKSLFINGERIMLFSGEVHPFRLPVPSLWLDIFHKIRALGFNCVSFYIDWALLEGKPGDYRAEGIFALEPFFDAAKEAGIYLIARPGSYINAQVSGGGFPGWLQRVNGTLRSSDEPFLKATDNYIANAAAAVAKAQITNGGPVILYQPENEYSGGCCGVKYPDADYMQYVMDQARKADIVVPFISNDASPSGHNAPGSGTGAVDIYGHDSYPLGFDCANPSVWPEGKLPDNFRTLHLEQSPSTPYSLLEFQAGAFDPWGGPGFEKCYALVNHEFSRVFYRNDLSFGVSTFNLYMTFGGTNWGNLGHPGGYTSYDYGSPITETRNVTREKYSDIKLLANFVKASPSYLTATPRNLTTGVYTDTSDLAVTPLIGDSPGSFFVVRHTDYSSQESTSYKLKLPTSAGNLTIPQLEGTLSLNGRDSKIHVVDYNVSGTNIIYSTAEVFTWKKFDGNKVLVLYGGPKEHHELAIASKSNVTIIEGSDSGIVSTRKGSSVIIGWDVSSTRRIVQVGDLRVFLLDRNSAYNYWVPELPTEGTSPGFSTSKTTASSIIVKAGYLLRGAHLDGADLHLTADFNATTPIEVIGAPTGAKNLFVNGEKASHTVDKNGIWSSEVKYAAPEIKLPGLKDLDWKYLDTLPEIKSSYDDSAWVSADLPKTKNTHRPLDTPTSLYSSDYGFHTGYLIYRGHFVANGKESEFFIRTQGGSAFGSSVWLNETYLGSWTGADYAMDGNSTYKLSQLESGKNYVITVVIDNLGLDENWTVGEETMKNPRGILSYKLSGQDASAITWKLTGNLGGEDYQDKVRGPLNEGGLYAERQGFHQPQPPSESWESGSPLEGLSKPGIGFYTAQFDLDLPKGWDVPLYFNFGNNTQAARAQLYVNGYQYGKFTGNVGPQTSFPVPEGILNYRGTNYVALSLWALESDGAKLGSFELSYTTPVLTGYGNVESPEQPKYEQRKGAY	2.05	88	43	3.8	2.2	34.6 ± 0.5 mAu/min/mg
E298Q: A. oryzae β-galactosidase variant, E298Q (protein, UniProt Q2UCU3 19-1005, looked up, variant E298Q) Beta-galactosidase A: ASIKHRLNGFTILEHPDPAKRDLLQDIVTWDDKSLFINGERIMLFSGEVHPFRLPVPSLWLDIFHKIRALGFNCVSFYIDWALLEGKPGDYRAEGIFALEPFFDAAKEAGIYLIARPGSYINAEVSGGGFPGWLQRVNGTLRSSDEPFLKATDNYIANAAAAVAKAQITNGGPVILYQPENEYSGGCCGVKYPDADYMQYVMDQARKADIVVPFISNDASPSGHNAPGSGTGAVDIYGHDSYPLGFDCANPSVWPEGKLPDNFRTLHLEQSPSTPYSLLQFQAGAFDPWGGPGFEKCYALVNHEFSRVFYRNDLSFGVSTFNLYMTFGGTNWGNLGHPGGYTSYDYGSPITETRNVTREKYSDIKLLANFVKASPSYLTATPRNLTTGVYTDTSDLAVTPLIGDSPGSFFVVRHTDYSSQESTSYKLKLPTSAGNLTIPQLEGTLSLNGRDSKIHVVDYNVSGTNIIYSTAEVFTWKKFDGNKVLVLYGGPKEHHELAIASKSNVTIIEGSDSGIVSTRKGSSVIIGWDVSSTRRIVQVGDLRVFLLDRNSAYNYWVPELPTEGTSPGFSTSKTTASSIIVKAGYLLRGAHLDGADLHLTADFNATTPIEVIGAPTGAKNLFVNGEKASHTVDKNGIWSSEVKYAAPEIKLPGLKDLDWKYLDTLPEIKSSYDDSAWVSADLPKTKNTHRPLDTPTSLYSSDYGFHTGYLIYRGHFVANGKESEFFIRTQGGSAFGSSVWLNETYLGSWTGADYAMDGNSTYKLSQLESGKNYVITVVIDNLGLDENWTVGEETMKNPRGILSYKLSGQDASAITWKLTGNLGGEDYQDKVRGPLNEGGLYAERQGFHQPQPPSESWESGSPLEGLSKPGIGFYTAQFDLDLPKGWDVPLYFNFGNNTQAARAQLYVNGYQYGKFTGNVGPQTSFPVPEGILNYRGTNYVALSLWALESDGAKLGSFELSYTTPVLTGYGNVESPEQPKYEQRKGAY	1.82	89	48	3.7	2.2	5.2 ± 0.1 mAu/min/mg
D258A, E298A: A. oryzae β-galactosidase double variant D258A, E298A (protein, UniProt Q2UCU3 19-1005, looked up, variant D258A E298A) Beta-galactosidase A: ASIKHRLNGFTILEHPDPAKRDLLQDIVTWDDKSLFINGERIMLFSGEVHPFRLPVPSLWLDIFHKIRALGFNCVSFYIDWALLEGKPGDYRAEGIFALEPFFDAAKEAGIYLIARPGSYINAEVSGGGFPGWLQRVNGTLRSSDEPFLKATDNYIANAAAAVAKAQITNGGPVILYQPENEYSGGCCGVKYPDADYMQYVMDQARKADIVVPFISNDASPSGHNAPGSGTGAVDIYGHASYPLGFDCANPSVWPEGKLPDNFRTLHLEQSPSTPYSLLAFQAGAFDPWGGPGFEKCYALVNHEFSRVFYRNDLSFGVSTFNLYMTFGGTNWGNLGHPGGYTSYDYGSPITETRNVTREKYSDIKLLANFVKASPSYLTATPRNLTTGVYTDTSDLAVTPLIGDSPGSFFVVRHTDYSSQESTSYKLKLPTSAGNLTIPQLEGTLSLNGRDSKIHVVDYNVSGTNIIYSTAEVFTWKKFDGNKVLVLYGGPKEHHELAIASKSNVTIIEGSDSGIVSTRKGSSVIIGWDVSSTRRIVQVGDLRVFLLDRNSAYNYWVPELPTEGTSPGFSTSKTTASSIIVKAGYLLRGAHLDGADLHLTADFNATTPIEVIGAPTGAKNLFVNGEKASHTVDKNGIWSSEVKYAAPEIKLPGLKDLDWKYLDTLPEIKSSYDDSAWVSADLPKTKNTHRPLDTPTSLYSSDYGFHTGYLIYRGHFVANGKESEFFIRTQGGSAFGSSVWLNETYLGSWTGADYAMDGNSTYKLSQLESGKNYVITVVIDNLGLDENWTVGEETMKNPRGILSYKLSGQDASAITWKLTGNLGGEDYQDKVRGPLNEGGLYAERQGFHQPQPPSESWESGSPLEGLSKPGIGFYTAQFDLDLPKGWDVPLYFNFGNNTQAARAQLYVNGYQYGKFTGNVGPQTSFPVPEGILNYRGTNYVALSLWALESDGAKLGSFELSYTTPVLTGYGNVESPEQPKYEQRKGAY						INACTIVE
E298A: A. oryzae β-galactosidase variant, E298A (protein, UniProt Q2UCU3 19-1005, looked up, variant E298A) Beta-galactosidase A: ASIKHRLNGFTILEHPDPAKRDLLQDIVTWDDKSLFINGERIMLFSGEVHPFRLPVPSLWLDIFHKIRALGFNCVSFYIDWALLEGKPGDYRAEGIFALEPFFDAAKEAGIYLIARPGSYINAEVSGGGFPGWLQRVNGTLRSSDEPFLKATDNYIANAAAAVAKAQITNGGPVILYQPENEYSGGCCGVKYPDADYMQYVMDQARKADIVVPFISNDASPSGHNAPGSGTGAVDIYGHDSYPLGFDCANPSVWPEGKLPDNFRTLHLEQSPSTPYSLLAFQAGAFDPWGGPGFEKCYALVNHEFSRVFYRNDLSFGVSTFNLYMTFGGTNWGNLGHPGGYTSYDYGSPITETRNVTREKYSDIKLLANFVKASPSYLTATPRNLTTGVYTDTSDLAVTPLIGDSPGSFFVVRHTDYSSQESTSYKLKLPTSAGNLTIPQLEGTLSLNGRDSKIHVVDYNVSGTNIIYSTAEVFTWKKFDGNKVLVLYGGPKEHHELAIASKSNVTIIEGSDSGIVSTRKGSSVIIGWDVSSTRRIVQVGDLRVFLLDRNSAYNYWVPELPTEGTSPGFSTSKTTASSIIVKAGYLLRGAHLDGADLHLTADFNATTPIEVIGAPTGAKNLFVNGEKASHTVDKNGIWSSEVKYAAPEIKLPGLKDLDWKYLDTLPEIKSSYDDSAWVSADLPKTKNTHRPLDTPTSLYSSDYGFHTGYLIYRGHFVANGKESEFFIRTQGGSAFGSSVWLNETYLGSWTGADYAMDGNSTYKLSQLESGKNYVITVVIDNLGLDENWTVGEETMKNPRGILSYKLSGQDASAITWKLTGNLGGEDYQDKVRGPLNEGGLYAERQGFHQPQPPSESWESGSPLEGLSKPGIGFYTAQFDLDLPKGWDVPLYFNFGNNTQAARAQLYVNGYQYGKFTGNVGPQTSFPVPEGILNYRGTNYVALSLWALESDGAKLGSFELSYTTPVLTGYGNVESPEQPKYEQRKGAY	2.08	85	52	3.5	2.1	6.3 ± 0.1 mAu/min/mg
